Values of other authors in US10525162B2, “Sophorolipid mediated accelerated gelation of silk fibroin” (COUNCIL OF SCIENTIFIC & INDUSTRIAL RESEARCH, priority 2014, dated 2020).

Settings: aqueous SF solution without additive, below the isoelectric pH

SF: Silk fibroin, fibrous protein derived from silkworm Bombyx mori
gelation time: 10 to 16 h
